Measurements published in the nanobody polyreactivity screen of Harvey et al. (2022).

Test: yeast display, Sf9 membrane polyspecificity reagent, FACS + sequencing; frameworks hold sequencing errors
In short: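 After 36–48 hours of galactose induction, yeast (Saccharomyces cerevisiae BJ5465) displaying a synthetic nanobody library were stained at 4 °C for 1 hour with 10% biotinylated, detergent-solubilized Sf9 membrane reagent. Streptavidin microbeads enriched the stained cells before FACS sorting into low and high (top ~1%) gates on anti-HA and streptavidin fluorescence. Each clone's polyreactivity label reflects its gate of origin.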

| Sequence | polyreactivity (PSR sort gate) |
| --- | --- |
| QVQLVESGGGLVQAGGSLRLSSAASGFTFVTYSKGWNRQATGKERELVAAISIRGGSTYADSVKGRFTISRDNAKNSVYLQMNSLKPEDTAVYSCATGRALEYNYWGQGTQVTVSS | low polyreactivity |
| QVQLVESGGGLVQAGGSLRLSCAASGRTFIGYAMGWYRHAPGKERELVATISVSGGSTYYADSVKGRFTISRDNAKNTVYLQMKSLKPEDTAVYYCDKAYLRYYDGPYDYWGQGTQVTVSS | low polyreactivity |
| QVQLVESGGGLDQAGGSLRLSCAASGRIFKRYAMGWYRQAPGKERELVAAITRSGTRTYYADSVKGRFTISRDNAKNTVYLQMNSLKPEDTAVYYCAAALGWYSAFGYWGQGTQVTVSS | high polyreactivity |
| QVQHVESGGGLVQAGGSLRLSCAASGSIFAGYAMGWYRQAPGKEWELVAAISRRGGRKYYADSVKGRFTISRDNAKNTVYLQMNSLKPEDTAVYYCAVTTPRGPYGYDYWGQGTQVTVSS | high polyreactivity |
| QVQLVDSGGGLVQAGGSLRLSCAASGSTVKYAMGWYRQAPGKERELVASIRRSGGSTYYADSVKGRFTISRDNAKITVYLKMNSLNPEDTAVYYCAAPLFRWMDYWGQGTQVTVSS | high polyreactivity |
| QVQLVESGAGLVQAGGSLRLSCADSGIIFSSNAMGWYRQAPGKERELVASITSAGNTYYADSVKGRFTISRDNAKNTVYLQMNSLKPEDTAVYYCYARYYYQYFHFSWSYPYGSWGQGTQVTVSS | high polyreactivity |
| QVQLVESGGGLVQAGGSLRLSCAASGFIIPGYAMGWYRQAPGKERELVAAISSGTSTYYEDSVKGRFTISRDNAKNTVYLQMNSLKPEATAVYDCAAETWYRFGYWGQGTQVTVSS | low polyreactivity |
| QVQLVDSGGGLVQAGGSLRLSCAASGSIFVKYAMGWYRQAPGKERELVAAISWRGGSTYYADSVKGRFTISRDNAKNTVYLQMNSLKPEDTAVYYCAKYPGISGYNYWGQGTQVTVSS | high polyreactivity |
| QVQLVESGGGLVQAGGSLRFSCAASGFTFASNAMGWYRQAPGQERELVAAITSGGRTYYADSVKGRFTISRDNAKNTVYLQMNSLKPEDTAVYYCAKPNGALKRYYYWGQGTQVTVSS | high polyreactivity |
| QVQLEESGGGLVQAGGSLRLSCAASGFTFPWNVMGWYRQAPGKEREFVAAISKSAGSTFYADSVKGRFTISRDNAKNTVYLQMNSLKPEDTAVYYCAKPRVPGVHVQEMYYWGQGTQVTVSS | low polyreactivity |
| QVQLVESGGGLVQAGGSLRLSCAASGFTFGPYVKGWYRQAPGKERELVAAISKSGGSTYYADSVKGRFTISRDYAKNTVYLQMNSLKPEDTAVYYCATDYLGGGKRYYYWGQGTQVTVSS | high polyreactivity |
| QVQLVESGGGLVQSGGSLRLSCAASGITFFFNAMGWYRQAPGKERELVAPITSGGGSTYYADSVKGRFTISRENAKNTVYLQMNSLKPEDTAVYYCAAEWSYGGMDYWGQGTQVTVSS | low polyreactivity |
| QVQLVESGGGLDQAGGSLRLSCAASGIIPYYYVMGWYRQAPGKERELVAAINRSGTSTYYADSVKGRFTISRDNAKNTVYLQMNSLKPEDTAVYYCAAERYWSGGVFDYDYWGQGTQVTVSS | high polyreactivity |
| QVLLVESGGGLVQAGGSLRVSCAASGFTFYGYAMGWYRQAPGKERELVAARSSTGGRTYYADSVKGRFTISRDNAKNTVYLQMNSLKPEDTAVYYCNKVWRFAEHNYWGQGTQVTVSS | high polyreactivity |
| QVQLVESGGGLVQAGGSLRLSCAASGSIFSVYVMGWYRQAPGKERELVAAISWSDSDTYYADSVKGRFTISRDNAKNTVYLQMNSLKPEDTAVYYCNVVNPVLYSSYEFDYWGQGTQVTVSS | high polyreactivity |
| QVQLVESGGGLVQAGGSLRLSCDASGFIFYGYVMGWYRQAPGKERELVAAITIGGSTNYADSVKGRFTISRDNAKNTVYLQRNSLKPEDTAVYYCAADQRSVTVGMDSWGQGTQVTVSS | low polyreactivity |

| Sequence | polyreactivity (PSR sort gate) |
| --- | --- |
| QVQLVESGAGLVQAAGSLRISSAHSGFSFTYNAMGWYRQAPGKVTEFVASISRSGGRTYYADSVKGRFTISRDNANNTVYLQMNSLKPEDTAVYYCAARNAYVYGMDSWGKGTQVTVSS | low polyreactivity |
| QVQLVESGGGLVQAGGSLRLSCAASGFTFTTNAMGWYRQAPGKEREFVAAISRSGGSTDYADSVKGRFTISRDNAKNTVYLQMNSLKPEDTAVYYCNADPRLRQTRDYWGHGTQVTVSS | high polyreactivity |
| QVQLVESGGGLVQAGGSLRLSCAASGSIFWANAKGWYRQAPGKERELVATITSGGRTYYADSVKGRFTISRDNAKNTVYLQMNSLKPEDTAVYYCARVPPQYRWGRRLVYVHVDYWGQGTQVTVSS | low polyreactivity |
| QVQLVESGGGLVQAGGILRLSCAASGRTFLVNAMGWYRQAPGKERELVAAISQRGGSTDYADSVKGRFTISRDNAKNTVYLQMNSLKPEDTAVYYCAVRWGYLYDYWGQGTQVTVSS | low polyreactivity |
| QVQLVESGGGLVQAGGSLRLSCAASGLTFIDYAMGWYRQAPGKERELVAAITKSGGGTYYADSVKGRFTISRDNAKNTVYLQMNSLKPEDTAVYYCAAVYRTRLYYYWGQGTQVTVSS | high polyreactivity |
| QVQLVESGGGLVQAGGSLRLSCAASGFTFDAYDMGWYRQAPGKERELVASITGGGSTYYADSVKGRFTISRDNAKNTVYLQMNSLKPEDTAVYYCAADLYFEGYNRYYHISGFDYWGQGTQVTVSS | low polyreactivity |
| QVQLVESGGGLVQAGGSLRLSCAASGGTIEYYAMGWYRQAPEKERELVAAISVSGGRTYYADSVKGRFTISRDNAKNTVYLQMNSLKPEDTAVYYCATDSRLWGQGTQVTVSS | high polyreactivity |
| QVQLVESGGGLVQAGGSLRLSCAASGSTFEYYAMGWYRQAPGKERELVATISIDGRTNYADSVKGRFTISRDNAKYTVYLQMNSLKPEDTAVYYCAASDLTAISSKYDYWGQGTQVTVSS | low polyreactivity |
| QVQLVESGGGLVQAGGSLRLSCAASGRTSYTYTMGWYRQAPGKERELVAAISWNAGSTYYADSVKGRFTISRDNAKNTVSLQMNSLKPEDTAVYYCNRRIFGGQRMYYWGQGTQVTVSS | high polyreactivity |
| QVQLVESGGGLVQAGGSLRLSCAASGSIFGLYTMGWYRQAPGKERELVAAISSVGSTYYADSVKGRFTISRDNAKNTVYLQMNSLKPEDTAVYYCNVYSRTHYQTYTDDYWGQGTQVTVSS | high polyreactivity |
| QVQLVESGGGLVQAGGSLRLSCAASGSIFRGNALGWYRQAPGKERELFAAISKSGGSTYYADSVKGRFTISRDNAKNTVDLEMNSLKPEDTAVYYCAARTTYLYGMYYWGQGTQVTVSS | low polyreactivity |
| QVQLVESGGGLVQAGGSLRLSCAASGSTFRFNAMGWYRQAPGKERELVAAITGIGGITYYADSVKGRFTISRDNAKNTVYLQMNSLKPEDTAVYYCNAVAARYSVRNGYSTHYDYWGQGTQVTVSS | high polyreactivity |
| QVQHVESGGGLVQAGGSLRLSCAASGIIFPYNAMGWYRQAPGKERELVAAITGGGSTYYADSVKGRFTISRDNAKNTVYLQMNSLKPEDTAVYYCAADRSGPGYDYWGQGTQVTVSS | low polyreactivity |
| QVQLVESGGGLVQAGGSLRLSCAASGFIFPGYAMGSYRQAPGKERELVAAISRRGGRTYYADSVKGRFTISRDNAKNTVYLQMNSLKPEDTAVYYCAAVVQSTQYICDYWGQGTQVTVSS | high polyreactivity |
| QVQHVESGGGLVQAGGSLRLSCAASVSIFSPNDMGCYRQAPGKERELVAAITSAGSTYYADSVKGRFTISRDNAKNSVYLQMNSLKPEDTAVYYCAASYISVTDYAYFPLWYGYWGQGTQVTVSS | low polyreactivity |
| QVQLVESGGGLVQAGGSLRLSCDASGRIFGRYAMGSYRPAPGNDRELVAAIPRNGGSTYADSVKGRFTISRDNAKNTVYLQMNSLKPEDTAVYYCAARNSYRYSKYDYWGQGTQVTVSS | high polyreactivity |
